The nature of this series: soluble on expression in E. coli; label from the status in PepcDB or PDB records.
On to “MVRTCSNCGSSEIDEDAARGDATCTACGTVLEESIVVTENQFQERAGGSGHTLVGQFVSSERAAANNFNGMGSQESREMTYAKGRKVIDELGSQLRINSHCMNTAFNFYKMCVSRNLTRGRNRSSVVAVCMYITCRLENTAHLLLDFSDVTQINVFDLGRNLNYLSRSLRINLPSTDPCLYIMRFACVLDFGDKQKEVVNLATRLVQRMKRDWMSTGRRPTGICGAALLIAARSLNFNRSINDIVRVVHISEGVIRKRLDEFSQTPSGSLTIDEFSTVDLEHSEDPPAYRESRRKAREDQLRKEAEQAESMKEQLGEMEAHVEAALDKKRKEKFSKSPYARMISENLGKENDKMQTLTETVVESSGLEKGADEMVRNEIINTVFNAAEEDPCTSNSLEKYDKYRPSLESLGIKRTSEPEPEPVPHPIVNADLEEDISDSEIDSYILTESEVAIKTDYWMKANGEAMKEIEEKKRERELNGGVKKKKPRSNRKTDTTSTSVASAVEKVIAEKKLSNKVNYEMLKDLETMATGIKRDIRESTPAPVTPISIKVDSSDVTPDTLSKSEKIARGKNIRSQASESTIQKLRSIFDLTEECSETSKNSSPKVNLKVESASPSTSEVSSIEHKPFVPPARSRYAKVKPIIGAKKLAALNEVKNVHTVPEPSAPAEPIVSEAPLQVKTSSSDPIVTSTEVPSVAEPPAPIQNVEEAKPIVPVKSRYAKAKPNLKPIKQKTAVDVVTVGEGESSEPSAKRTKAEHLES”, for which the “soluble on expression in E. coli” value is on record as “not soluble”.

With “MAAYQVLIVGAGFSGAETAFWLAQKGVRVGLLTQSLDAVMMPFLPPKPPFPPGSLLERAYDPKDERVWAFHARAKYLLEGLRPLHLFQATATGLLLEGNRVVGVRTWEGPPARGEKVVLAVGSFLGARLFLGGVVEEAGRLSEASYPDLLEDLSRLGFRFVEREGEVPETPSTPGYRVRYLAFHPEEWEEKTFRLKRLEGLYAVGLCVREGDYARMSEEGKRLAEHLLHELG”, the “soluble on expression in E. coli” value was “soluble”.

With “MCITFIKTAKSSLDKYKLILLNNRDEQLLRPTKEMHWHDGILSGVDKQENARGTWLGLNENGRIGMMLSITQTQESKNLHAPSRGGIVNEFLNANDTSKMIESLKKCASKYNGFQLVAVEKNSTGLYEVRTLANQQVDEIEVCQLKDEYHVVSNSPPTKPYQKAVQGKKLLREHLENSDQFSVDQIFEKLLSIAKNTTQWYPDAQLQYQTQNVEEYNRPLSAIFIKYPEGTRMYGTRCHTLITVDQKDKINILERRLLPEQSTWHDARFEFVLNGS”, the “soluble on expression in E. coli” value is on record as “not soluble”.

Turning to “MGSDKIHHHHHHMGLNLSKGDMYKFVNYTWNPIKGKCLHDCSYCYMKQINPNANPPRLAEYELNTDLGCGRSIFIGSSTDMFAEDIPSEWIARVLDYCYQNRNMLLPNAYLLQSKNPKRFLEFINHPIMERVVFCTTIETNRFYPEIMNKAPRIDERVEAMEEIARLGRPTMVTAEPLMQFDHEEMVSFIRRCSPKLVNIGRNSCRRIVLPEPTQEEVQQLIAELKSLKSFTKVNVKDNALEWCK”, the “soluble on expression in E. coli” value was “not soluble”.

Turning to “MAHHHHHHMITGGSEKLLTKDSVAQYIRRVSSGLLYESAVLPIQFLIRGFRDIVPCEALASLGEQEMMSLLCGCRANDKKPLWTLAEIKSILVAEHGYQTDSPQMTMLQNILANRLTPAEQRSFLLFCTGCPRLPVGGVGALGAITVVKRSDFTMFHGSSGRNSGGSDGIGGADRKEQNPKQPGEWNSLPNETDWPLPSVNTCFRYLKLPPYPTEDLMYKKLRLSIMQGGETFQLS”, the “soluble on expression in E. coli” value is listed as “not soluble”.

With “MGSDKIHHHHHHMIRKIIKIDKEKCNGCGACASACHEGAIDIIDGKAELVREHFCDGLGDCLPECPTGAISFEERDAPAYDEEAVKEAQKKIAAKNRAISSHSGCPGSKIMQIRRTETSEPVKATSTADSGSKLQNWPVQIKLAPVNAPYFNGSKLLIAADCTAYAYAAFHQDFIRNKVTLIGCPKLDQVDYSEKLTAIIQNNSIQSVTIVRMEVPCCGGLEIAAKKALQASGKFIPWQVVTISIDGKIME”, the “soluble on expression in E. coli” value is “not soluble”.

“GMPKLDLDSIERRIGSVYPGRLNAAMDGRSSLRLGDAGGLSQFGVNLVRLEPGAKSSLRHYHMEQDEFVMVTEGALVLVDDQGEHPMVPGDCAAFPAGDPNGHQFVNRTDAPATFLVVGTRTPTETAYYSDMDMMVKQDASGFAFTRKDGSPLTADQIGDDNE”: the “soluble on expression in E. coli” value is recorded as “soluble”.

Consider “MRQRYLALLSLFASLPAMAISFQTRLESIEWKVEGDQFECRLTQPITDFGAGEFVRRAGEQATFRLKASYNMLGNGSATLLAAAAPWQPGRGDINLGSVRVSNGDIPFNTSQAQAGRLISGLMDGRSPLIRHYNRDGGQMEVRLLPVKFSKAFSDYQACTAKLLPMNFDQVKQAEVGFPGGGIELDANAKARLDNMVAYLKADPTVNRIELDGHSDNSGNRLTNRDLSRRRALAVMDYFKAQGIPEQQITLRFHGERYPLAPNTNNANRARNRRVNVHLERVAPDERPVPVASSASAAHTS”, for which the “soluble on expression in E. coli” value is recorded as “not soluble”.

For the sequence “MGSDKIHHHHHHMSAHEMNHATPRLPAPLFVTGTDTGVGKTVVSLLLMRALFRRGMVPFYAKPMQTGCRDPYDTDSDAAFVYRHVPELAERDPAEAVGWCFRAPKAPLHAARDERNGVETEDLMRRLAILRATHACLVLEGAGGLMVPFTADALCVDCIRAADARPVLVARDGLGTVNHTLLSVEAMTRRGVTPAGIVFVASGKRPTPSDLVHDNMEAVAMLSGISVSGIVPPILDFHAPPEAALTVADAVIDAALGL”, the “soluble on expression in E. coli” value was “not soluble”.

As for “MSNLNPCMTCGACCAFFRVSFYWAEADDAGGTIPARLTEQISPFHRCMSGTNQKNPRCIALAGTPGKNACCTIYKNRSSTCREFAMSGENGVVNEACNRARAKYGLTPL”, the “soluble on expression in E. coli” value is recorded as “not soluble”.

“GPGSMSSCTHPTSALFVDRQNGRTTCTICGDVVTTDQYELDPIFAQGGRQPASGGGLRGLAGSFRPATSYKGTHTGVIHSHSRPTIDKARREMLNISRQLEISEDTVERALGIYKVALNLNAVSGTRPSVLCACLYAACRRERTSHVIYDFSEINGEDPHTILSQMKYICHATHTEVPVIDPSCYVQRFAEQMDLGPQTTDVVVCALKVLRAMQDDWISCGRRPMGVCAAALLVACYVFGISRTPEQVCGMVRLTSNTIGKRLTEFAATPTARLENIDDYQPSHETLPPAFNDSSRKSTEEDVHASMRELSAIFYELVSEAKTSQPATPERCDKWRRFIMKHCELEGITPLEENLDLKGLPPAQQLHILGLPHTKPIPLEEVARSVKREEHRLLVKREASLQNGSDAGGSMSGARQGAVAGLLNNADVSSNGIPLYLLPDESLASSLAQASPAMGYADDGGMHSSSAAVGAASMDSPEQLRWMTDEYTRLLNSNAEVMHLRNDFDFADEDDANGAGGSSGGGAVAPPVSHPTQNQPFSCGLSQLRGGSPPPGTPAEEDPFGFFDRDDEGTRLALEEILYDRERRHALPWEFLVLPRVEEDDCTDILSYLVLDNEERLRRERIGVSLYGEKWKRGRARTDEEIQKLEEARASKRRRRSVIAEPAVDVPTAMERALRGRGAGTVNISQIGELLPGMLEFLEDEPQADWD”: the “soluble on expression in E. coli” value is given as “not soluble”.

On to “MVPEVFAQARLRMDQLTKPPRALGYLEEVALRLAALQGRVKPELGRGAVVVAAADHGVVAEGVSAYPQEVTRQMVLNFLRGGAAINQFALAADCAVYVLDVGVVGELPDHPGLLKRKVRPGTANLAQGPAMTPEEAERALLAGREAARRAIAEGATLLAAGDMGIGNTTAAAALTAALLGLPPEAVVGRGTGVGEEGLRRKRQAVARALARLHPGMGPLEVAAEVGGIELVAIAGIYLEGYEAGLPLVLDGFPVTAGALLAWKMAPGLRDHLFAGHLSREPGHRHQLEALGLRPLLDLDLALGEGTGAVLAMPLLRAAARILHMATFQEAGVSRG”, for which the “soluble on expression in E. coli” value is listed as “soluble”.

With “MGGRSRWEIAQESTLALARKCEQFDPDGITVYLFSGKFKRYDDVTSAKVAQIFLENDPAGTTNLAGVLQDALNNYFQRKAAGKTKPNGETILVITDGEPDDRKAVFETIIHATRQMERDEELGISMIQVGSDAQATKFLKALDDQLQSVGAKFDICDTITLEDLEDMSLADVLMNAITDLEHHHHHH”, the “soluble on expression in E. coli” value is “not soluble”.
